Data taken from patent publication US20060094101A1 (Pfizer, published 2006).

B1: p53, yeast two-hybrid control bait (other, UniProt P04386 1-147, looked up)
chain: MKLLSSIEQACDICRLKKLKCSKEKPKCAKCLKNNWECRYSPKTKRSPLTRAHLTEVESRLERLEQLFLLIFPREDLDMILKMDSLQDIKALLTGLFVQDNVNKDAVTDRLASVETDMPLTLRQHRISATSSSEESSNKGQRQLTVSPVTETPGPVAPAPATPWPLSSFVPSQKTYQGNYGFHLGFLQSGTAKSVMCTYSPPLNKLFCQLAKTCPVQLWVSATPPAGSRVRAMAIYKKSQHMTEVVRRCPHHERCSDGDGLAPPQHLIRVEGNLYPEYLEDRQTFRHSVVVPYEPPEAGSEYTTIHYKYMCNSSCMGGMNRRPILTIITLEDSSGNLLGRDSFEVRVCACPGRDRRTEEENFRKKEVLCPELPPGSAKRALPTCTSASPPQKKKPLDGEYFTLKIRGRKRFEMFRELNEALELKDAHATEESGDSRAHSSYLKTKKGQSTSRHKKTMVKKVGPDSD
notes: Specificity control bait
B2: V5-tagged Shc (V5-p66 Shc A) (other, not shown: small tags and cut ends)
chain: MDLLPPKPKYNPLRNESLSSLEEGASGSTPPEELPSPSASSLGPILPPLPGDDSPLPCVPSFPRMSNLKLANPAGGPWGLKGSQERLLKMGKGVQGQPFGLRPLAPPPDMNKLSGGGGRRTRVEGGQLGGEEWTRHGSFVNKPTRGWLHPNDKVMGPGVSYLVRYMGCVEVLQSMRALDFNTRTQVTREAISLVCEAVPGAKGATRRRKPCSRPLSSILGRSNLKFAGMPITLTVSTSSLNLMAADCKQIIANHHMQSISFASGGDPDTAEYVAYVAKDPVNQRACHILECPEGLAQDVISTIGQAFELRFKQYLRNPPKLVTPHDRMAGFDGSAWDEEEEEPPDHQYYNDFPGKEPPLGGVVDMRLREGAARPTLPSAQMSSHLGATLPIGQHAAGDHEVRKQMLPPPPCPGRELFDDPSYVNIQNLDKARQAGGGAGPPNPSLNGSAPRDLFDMKPFEDALRVPPPPQSMSMAEQLQGEPWFHGKLSRREAEALLQLNGDFLVRESTTTPGQYVLTGLQSGQPKHLLLVDPEGVVRTKDHRFESVSHLISYHMDNHLPIISAGSELCLQQPVDRKV
B3: src homology and collagen (Shc; Shc A), yeast two-hybrid library clone (other, not shown: large carriers)
chain: B2 chain
notes: Clone from a pretransformed human bone marrow cDNA library
B4: Lamin (Clontech), yeast two-hybrid control bait (other, UniProt P04386 1-147, looked up)
chain: MKLLSSIEQACDICRLKKLKCSKEKPKCAKCLKNNWECRYSPKTKRSPLTRAHLTEVESRLERLEQLFLLIFPREDLDMILKMDSLQDIKALLTGLFVQDNVNKDAVTDRLASVETDMPLTLRQHRISATSSSEESSNKGQRQLTVSSEEVVSREVSGIKAAYEAELGDARKTLDSVAKERARLQLELSKVREEFKELKARNTKKEGDLIAAQARLKDLEALLNSKEAALSTALSEKRTLEGELHDLRGQVAKLEAALGEAKKQLQDEMLRRVDAENRLQTMKEELDFQKNIYSEELRETKRRHETRLVEID
notes: Specificity control bait; also called lamin (L)
B5: human polyhomeotic 2 (HPH2), yeast two-hybrid library clone (other, not shown: large carriers)
chain: MCLRGGCSPRAPAAAPQPRPPPALPPRPRAPVPASRPGRPLLTPARPCGRMRRGSPGPRLGGSRGERRRPAGRDPARVGPGQGLRRPARPGPAAWTETGQGIVHALTDLSIPGMTSGNGNSASSIAGTAPQNGENKPPQAIVKPQILTHVIEGFVIQEGADVSRWDARLLVGNLKKKYAQGFLPEKLPQQDHTTTTDSEMEEPYLQESKEEGAPLKLKCELCGRVDFAYKFKRSKRFCSMACAKRYNVGCTKRVGLFHSDRSKLQKAGAATHNRRRPAKPVCHHLPRIPRSSQQALCPFRLLLLCVTHSQEDSSRCSDNSSYEEPLSPISASSSTSAGDKASGTWSSPTCICGTWWAWDTTSCQVSHQVNVEDVYEFIRSLPGCQEIAEEFRAQEIDGQALLLLKEDHLMSVMNIKLGPALKIYARISMLKDS
notes: Clone from a pretransformed human bone marrow cDNA library; also called human polyhomeotic homolog 2

Key:
[1] = biological target: T1, similar to smoothelin (STS), yeast two-hybrid library clone (yeast; human, UniProt P53814 2-868); experiment: yeast two-hybrid, growth on SD/-Ade/-His/-Leu/-Trp and blue color on SD/-Leu/-Trp X-α-GAL
T1 construct: Clone from a pretransformed human bone marrow cDNA library
Text: (§1) Independent sequences were transformed into bacteria (DH5 α) from which DNA was subsequently isolated. Next, the DNA was transformed into yeast strain AH109. […] Each independent sequence strain transformed in AH109 was mated with Y187 yeast transformed with each of the three baits. Independent clones which interacted with MK2 and MK2 K93R, but not with empty vector pGBKT7, TPL2, p53, or Lamin, as assayed by their growth on SD/-Ade/-His/-Leu/-Trp and blue color on SD/-Leu/-Trp X-α-GAL, were identified as clones which included DNA inserts encoding specific MK2 interacting proteins (FIG. 9A). […] One protein encoded by an independent DNA sequence characterized was “similar to smoothelin” (STS).

[2] = biological target: MYC-tagged MK2 (UniProt P49137 1-400, limits assumed); experiment: cell-based or functional assay
[3] = biological target: B4; experiment: yeast two-hybrid, growth and color on selective media
Text: as §1

[4] = biological target: B1; experiment: yeast two-hybrid, growth on SD/-Ade/-His/-Leu/-Trp and blue color on SD/-Leu/-Trp X-α-GAL
Text: as §1

[5] = biological target: T2, TPL2, yeast two-hybrid control bait (yeast, UniProt P04386 1-147; P41279 1-467, limits assumed); experiment: as above
T2 construct: Specificity control bait
Text: as §1

[6] = biological target: T1, similar to smoothelin (STS), yeast …; experiment: yeast two-hybrid, growth and color on selective media
Text: as §1

T1 sequence (P53814 other isoform, or with tags, fused parts or gaps limits assumed): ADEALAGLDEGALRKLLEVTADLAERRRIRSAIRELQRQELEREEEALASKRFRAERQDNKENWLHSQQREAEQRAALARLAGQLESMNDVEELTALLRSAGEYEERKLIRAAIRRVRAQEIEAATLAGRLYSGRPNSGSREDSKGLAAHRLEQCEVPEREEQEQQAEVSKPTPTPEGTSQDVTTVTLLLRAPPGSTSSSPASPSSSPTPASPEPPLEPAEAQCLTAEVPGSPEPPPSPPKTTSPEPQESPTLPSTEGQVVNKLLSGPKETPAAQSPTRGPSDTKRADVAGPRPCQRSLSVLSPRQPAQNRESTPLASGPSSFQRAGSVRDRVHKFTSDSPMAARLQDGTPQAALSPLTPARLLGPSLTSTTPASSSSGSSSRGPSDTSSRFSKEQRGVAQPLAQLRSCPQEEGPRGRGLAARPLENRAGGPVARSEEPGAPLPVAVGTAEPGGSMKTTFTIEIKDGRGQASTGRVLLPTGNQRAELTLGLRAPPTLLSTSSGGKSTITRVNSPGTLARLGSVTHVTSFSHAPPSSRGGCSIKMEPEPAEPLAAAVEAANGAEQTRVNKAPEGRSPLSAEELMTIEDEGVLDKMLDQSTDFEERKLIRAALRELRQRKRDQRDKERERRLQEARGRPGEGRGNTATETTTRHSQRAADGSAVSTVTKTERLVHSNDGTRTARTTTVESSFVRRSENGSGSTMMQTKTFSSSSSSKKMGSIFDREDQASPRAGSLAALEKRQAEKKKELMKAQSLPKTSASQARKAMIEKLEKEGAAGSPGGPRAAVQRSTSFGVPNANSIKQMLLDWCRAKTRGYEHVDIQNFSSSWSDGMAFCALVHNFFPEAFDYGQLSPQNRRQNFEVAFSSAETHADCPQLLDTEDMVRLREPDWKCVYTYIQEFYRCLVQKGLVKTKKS
Chain of MYC-tagged MK2 (P49137 whole entry): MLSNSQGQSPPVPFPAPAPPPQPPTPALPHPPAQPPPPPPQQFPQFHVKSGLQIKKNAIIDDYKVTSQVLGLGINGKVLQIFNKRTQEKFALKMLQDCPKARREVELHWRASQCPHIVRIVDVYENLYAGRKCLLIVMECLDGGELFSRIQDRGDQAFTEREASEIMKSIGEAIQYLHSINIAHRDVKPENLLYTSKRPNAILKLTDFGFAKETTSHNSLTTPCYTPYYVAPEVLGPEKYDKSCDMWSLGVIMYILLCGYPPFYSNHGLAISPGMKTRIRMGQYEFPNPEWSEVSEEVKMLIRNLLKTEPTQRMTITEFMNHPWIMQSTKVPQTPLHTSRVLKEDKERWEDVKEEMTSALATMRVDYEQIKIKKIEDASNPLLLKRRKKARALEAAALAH

Row | Binder | binding result [3] | binding result [4] | binding result [5] | further results
1 | B1 | – | – | – | binding result [1]: no binding
2 | B2 | – | – | – | TNF-α biosynthesis (secreted TNF-α by ELISA) in LPS-stimulated RAW264.7 cells [2]: 1.5 fold; basal pHsp 27 levels in HeLa cells (immunoblot, densitometry) [2]: 3 fold
3 | B3 | no binding | no binding | no binding | –
4 | B4 | – | – | – | binding result [6]: no binding
5 | B5 | no binding | no binding | no binding | –
